Where two headings read alike, the source gives them in different places.
Assays:
[1] = molecular target: T1, CXCR4 chemokine receptor (human), P61073; test: ^125I-SDF-1α competitive binding assay, IC50 against SDF-1
T1 chain: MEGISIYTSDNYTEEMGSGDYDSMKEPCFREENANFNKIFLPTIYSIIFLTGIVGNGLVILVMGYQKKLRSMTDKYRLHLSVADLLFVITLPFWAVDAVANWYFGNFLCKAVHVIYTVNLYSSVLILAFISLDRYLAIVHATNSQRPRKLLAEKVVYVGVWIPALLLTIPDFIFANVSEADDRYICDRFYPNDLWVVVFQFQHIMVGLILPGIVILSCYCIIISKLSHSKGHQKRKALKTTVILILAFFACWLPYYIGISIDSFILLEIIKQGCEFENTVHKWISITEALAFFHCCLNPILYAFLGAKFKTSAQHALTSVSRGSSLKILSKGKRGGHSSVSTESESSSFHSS

[2] = molecular target: T1, CXCR4 chemokine receptor (human), P61073; test: anti-CXCR4 mAb 12G5 competitive binding assay
[3] = molecular target: T1, CXCR4 chemokine receptor (human), P61073
[4] = molecular target: T1, CXCR4 chemokine receptor (human), P61073; test: cell-based or functional assay
[5] = molecular target: T1, CXCR4 chemokine receptor (human), P61073; test: anti-CXCR4 mAb 12G5 competitive binding assay, IC50 against SDF-1

B1: V1 peptide (vMIP-II, 1-21) (peptide)
peptide: LGASWHRPDKCCLGYQKRPLP
modifications: not checked
[1]
  fold less potent than SDF-1: 70 fold
[2]
  IC50: 640 nM
[3]
  IC50: 190 nM
[4]
  chemotaxis assay, IC50: 1000 nM
  intracellular calcium influx in Sup T1 cells: block of the SDF-1 signal: 200 µM
[5]
  fold less potent than SDF-1: 33 fold
